Measured values: the supplement of paper PMC10567573

B1: RHOBTB1 (parent)
chain: TFGDHHKDRRFAYGRSDVVVLCFS

Variants of: B1
Experiment: protein stability index of a GFP-peptide fusion (GPS, HEK-293T) (PSI 1-6); higher = more stable
Conditions: c terminus: a fixed tail appended
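Also: lentivirally expressed fusions sorted by FACS into six bins by GFP to DsRed ratio, PSI derived from sequencing read proportions per bin multiplied by bin number.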

Variant | protein stability index
TFGDHHKDRRFAYGRWDVVVLCFS [S16W] | 2.29
TFGDHHKDRRFAYGRLDVVVLCFS [S16L] | 2.15
TFGDHHKDRRFAYGRMDVVVLCFS [S16M] | 2.96
TFGDHHKDRRFAYGRNDVVVLCFS [S16N] | 2.38
TFGDHHKDRRFAYGREDVVVLCFS [S16E] | 2.07
TFGDHHKDRRFAYGRADVVVLCFS [S16A] | 4.21
TFGDHHKDRRFAYGRPDVVVLCFS [S16P] | 3.17
TFGDHHKDRRFAYGRKDVVVLCFS [S16K] | 2.43
TFGDHHKDRRFAYGRIDVVVLCFS [S16I] | 1.57
TFGDHHKDRRFAYGRYDVVVLCFS [S16Y] | 1.23
TFGDHHKDRRFAYGRQDVVVLCFS [S16Q] | 2.83
TFGDHHKDRRFAYGRHDVVVLCFS [S16H] | 2.91
TFGDHHKDRRFAYGRDDVVVLCFS [S16D] | 2.52
TFGDHHKDRREAYGRSDVVVLCFS [F11E] | 1.49
TFGDHHKDRRNAYGRSDVVVLCFS [F11N] | 2.49
TFGDHHKDRRKAYGRSDVVVLCFS [F11K] | 1.35
TFGDHHKDRRHAYGRSDVVVLCFS [F11H] | 2.37
TFGDHHKDRRYAYGRSDVVVLCFS [F11Y] | 1.27
TFGDHHKDRRPAYGRSDVVVLCFS [F11P] | 1.89
TFGDHHKDRRIAYGRSDVVVLCFS [F11I] | 2.38
TFGDHHKDRRDAYGRSDVVVLCFS [F11D] | 1.78
TFGDHHKDRRSAYGRSDVVVLCFS [F11S] | 1.13
TFGDHHKDRRAAYGRSDVVVLCFS [F11A] | 1.69
TFGDHHKDRRLAYGRSDVVVLCFS [F11L] | 1.98

Variant | protein stability index
TFGDHHKDRRWAYGRSDVVVLCFS [F11W] | 2.28
TFGDHTKDRRFAYGRSDVVVLCFS [H6T] | 1.94
TFGDHKKDRRFAYGRSDVVVLCFS [H6K] | 2.33
TFGDHQKDRRFAYGRSDVVVLCFS [H6Q] | 2.14
TFGDHSKDRRFAYGRSDVVVLCFS [H6S] | 2.21
TFGDHLKDRRFAYGRSDVVVLCFS [H6L] | 3.15
TFGDHHKDRRFQYGRSDVVVLCFS [A12Q] | 2.33
TFGDHHKDRRFRYGRSDVVVLCFS [A12R] | 2.98
TFGDHHKDRRFEYGRSDVVVLCFS [A12E] | 1.93
TFGDHHKDRRFHYGRSDVVVLCFS [A12H] | 3.79
TFGDHHKDRRFCYGRSDVVVLCFS [A12C] | 2.93
TFGDHHKDRRFVYGRSDVVVLCFS [A12V] | 1.95
TFGDHHKDRRFGYGRSDVVVLCFS [A12G] | 1.57
TFGDHHKDRRFTYGRSDVVVLCFS [A12T] | 2.65
TFGDHHKDRRFYYGRSDVVVLCFS [A12Y] | 1.9
TFGDHHKDRRFIYGRSDVVVLCFS [A12I] | 3.53
TFGDHHKDRRFKYGRSDVVVLCFS [A12K] | 1.46
TFGDHHKDRRFLYGRSDVVVLCFS [A12L] | 2.48
TFGDHHKDRRFDYGRSDVVVLCFS [A12D] | 2.58
TFGDHHKDRRFASGRSDVVVLCFS [Y13S] | 2.66
TFGDHHKDRRFAIGRSDVVVLCFS [Y13I] | 3.14
TFGDHHKDRRFAAGRSDVVVLCFS [Y13A] | 1.36
TFGDHHKDRRFANGRSDVVVLCFS [Y13N] | 2.36
TFGDHHKDRRFAPGRSDVVVLCFS [Y13P] | 1.04

Variant | protein stability index
TFGDHHKDRRFAMGRSDVVVLCFS [Y13M] | 1.55
TFGDHHKDRRFAHGRSDVVVLCFS [Y13H] | 2.49
TFGDHHKDRRFAQGRSDVVVLCFS [Y13Q] | 2.78
TFGDHHKDRRFAKGRSDVVVLCFS [Y13K] | 2.4
TFGDHHKDRRFAGGRSDVVVLCFS [Y13G] | 1.46
TFGDHHKDRRFACGRSDVVVLCFS [Y13C] | 2.38
TFGDHHKDRRFAEGRSDVVVLCFS [Y13E] | 1.93
TFGDHHKDRRFADGRSDVVVLCFS [Y13D] | 2.16
TFGDHHKDRRFARGRSDVVVLCFS [Y13R] | 1.33
TFGDHHKDRRFATGRSDVVVLCFS [Y13T] | 1.62
TFGDHHWDRRFAYGRSDVVVLCFS [K7W] | 3.28
TFGDHHLDRRFAYGRSDVVVLCFS [K7L] | 1.46
TFGDHHQDRRFAYGRSDVVVLCFS [K7Q] | 2.38
TFGDHHCDRRFAYGRSDVVVLCFS [K7C] | 2.42
TFGDHHSDRRFAYGRSDVVVLCFS [K7S] | 3.12
TFGDHHGDRRFAYGRSDVVVLCFS [K7G] | 3.09
TFGDHHTDRRFAYGRSDVVVLCFS [K7T] | 3.37
TFGDHHFDRRFAYGRSDVVVLCFS [K7F] | 3.68
TFGDHHDDRRFAYGRSDVVVLCFS [K7D] | 2.76
TFGDHHNDRRFAYGRSDVVVLCFS [K7N] | 3.44
TFGDHHADRRFAYGRSDVVVLCFS [K7A] | 1.53
TFGDHHYDRRFAYGRSDVVVLCFS [K7Y] | 3.88
TFGDHHMDRRFAYGRSDVVVLCFS [K7M] | 3.46
TFGDHHKDRTFAYGRSDVVVLCFS [R10T] | 2.93

Variant | protein stability index
TFGDHHKDRHFAYGRSDVVVLCFS [R10H] | 2.59
TFGDHHKDRCFAYGRSDVVVLCFS [R10C] | 2.7
TFGDHHKDRKFAYGRSDVVVLCFS [R10K] | 2.21
TFGDHHKDRPFAYGRSDVVVLCFS [R10P] | 3.19
TFGDHHKDRDFAYGRSDVVVLCFS [R10D] | 2.03
TFGDHHKDRNFAYGRSDVVVLCFS [R10N] | 3.35
TFGDHHKDRAFAYGRSDVVVLCFS [R10A] | 2.32
TFGDHHKDRGFAYGRSDVVVLCFS [R10G] | 4.76
TFGDHHKDRQFAYGRSDVVVLCFS [R10Q] | 2.27
TFGDHHKDRMFAYGRSDVVVLCFS [R10M] | 1.76
TFGDHHKDRIFAYGRSDVVVLCFS [R10I] | 1.96
TFGDHHKDREFAYGRSDVVVLCFS [R10E] | 1.47
TFGDHHKDRSFAYGRSDVVVLCFS [R10S] | 3.52
TFGDHHKDRVFAYGRSDVVVLCFS [R10V] | 2.19
TFGDHHKDRRFAYGRSDVVELCFS [V20E] | 2.7
TFGDHHKDRRFAYGRSDVVCLCFS [V20C] | 1.51
TFGDHHKDRRFAYGRSDVVALCFS [V20A] | 3.28
TFGDHHKDRRFAYGRSDVVDLCFS [V20D] | 2.62
TFGDHHKQRRFAYGRSDVVVLCFS [D8Q] | 4.86
TFGDHHKWRRFAYGRSDVVVLCFS [D8W] | 3.29
TFGDHHKNRRFAYGRSDVVVLCFS [D8N] | 2.29
TFGDHHKRRRFAYGRSDVVVLCFS [D8R] | 2.96
